For six molecules, interaction score results are on record in article PMC10397247.

Assay in all cases: two-hybrid library CCNG1;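 also: natural log of median RNA to DNA barcode read ratio; higher means stronger binding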
For one assay, the target named is T1, P11A-bN.
T1 chain: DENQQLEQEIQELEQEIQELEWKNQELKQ

Another assay addresses T2, P12A-bN.
T2 chain: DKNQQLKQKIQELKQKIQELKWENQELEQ

For another assay, the target named is T3, P1A-bN.
T3 chain: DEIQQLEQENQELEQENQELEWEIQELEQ

Another assay concerns the target T4, P2A-bN.
T4 chain: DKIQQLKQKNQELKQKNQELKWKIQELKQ

The next assay addresses T5, P3A-bN.
T5 chain: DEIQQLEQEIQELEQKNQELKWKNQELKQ

For a further assay, the target named is T6, P4A-bN.
T6 chain: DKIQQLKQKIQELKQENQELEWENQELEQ

In the next assay the target is T7, P5A-bN.
T7 chain: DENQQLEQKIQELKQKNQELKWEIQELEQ

The next assay addresses T8, P6A-bN.
T8 chain: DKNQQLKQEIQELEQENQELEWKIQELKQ

The next assay addresses T9, P7A-bN.
T9 chain: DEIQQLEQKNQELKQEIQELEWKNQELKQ

A further assay concerns the target T10, P8A-bN.
T10 chain: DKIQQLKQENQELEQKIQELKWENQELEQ

In a further assay the target is T11, P9A-bN.
T11 chain: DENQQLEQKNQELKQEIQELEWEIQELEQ

For another assay, the target named is T12, P12A-bH.
T12 chain: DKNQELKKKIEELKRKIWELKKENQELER

For another assay, the target named is T13, P1A-bH.
T13 chain: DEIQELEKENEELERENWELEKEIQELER

A further assay addresses T14, P2A-bH.
T14 chain: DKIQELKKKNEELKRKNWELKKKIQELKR

The target of a further assay is T15, P3A-bH.
T15 chain: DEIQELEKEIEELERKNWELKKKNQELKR

The target of another assay is T16, P4A-bH.
T16 chain: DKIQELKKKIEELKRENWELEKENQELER

In another assay the target is T17, P5A-bH.
T17 chain: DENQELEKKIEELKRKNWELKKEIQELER

Another assay addresses T18, P6A-bH.
T18 chain: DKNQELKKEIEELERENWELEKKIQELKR

A further assay addresses T19, P7A-bH.
T19 chain: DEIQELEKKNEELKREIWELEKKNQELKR

The target in a further assay is T20, P8A-bH.
T20 chain: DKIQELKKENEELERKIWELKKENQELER

The next assay has as its target T21, P9A-bH.
T21 chain: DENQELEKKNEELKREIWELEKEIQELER

A further assay deals with T22, 4H1369-bH.
T22 chain: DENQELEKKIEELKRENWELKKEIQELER

A further assay deals with T23, 4H1446-bH.
T23 chain: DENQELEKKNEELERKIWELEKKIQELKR

The next assay addresses T24, 4H1845-bH.
T24 chain: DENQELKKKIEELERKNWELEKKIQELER

The next assay has as its target T25, 4H2576-bH.
T25 chain: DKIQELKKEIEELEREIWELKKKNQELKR

The target in a further assay is T26, 4H2610-bH.
T26 chain: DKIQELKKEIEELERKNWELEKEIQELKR

In another assay the target is T27, 4H2667-bH.
T27 chain: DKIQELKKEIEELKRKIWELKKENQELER

The next assay concerns the target T28, 4H2697-bH.
T28 chain: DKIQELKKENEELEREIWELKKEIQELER

The target in the next assay is T29, 4H3189-bH.
T29 chain: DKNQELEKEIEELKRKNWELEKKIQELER

A further assay has as its target T30, 4H331-bH.
T30 chain: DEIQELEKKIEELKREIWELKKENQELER

For another assay, the target named is T31, 4H3606-bH.
T31 chain: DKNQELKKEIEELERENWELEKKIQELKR

The target in another assay is T32, 4H370-bH.
T32 chain: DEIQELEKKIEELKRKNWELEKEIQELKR

Another assay concerns the target T33, 4H3782-bH.
T33 chain: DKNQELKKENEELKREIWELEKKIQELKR

The target of the next assay is T34, 4H3843-bH.
T34 chain: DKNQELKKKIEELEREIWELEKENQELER

A further assay addresses T35, 4H4001-bH.
T35 chain: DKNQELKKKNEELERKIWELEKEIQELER

The next assay deals with T36, 4H462-bH.
T36 chain: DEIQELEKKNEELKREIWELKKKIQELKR

The target of another assay is T37, 4H568-bH.
T37 chain: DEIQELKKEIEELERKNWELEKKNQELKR

In the next assay the target is T38, 4H607-bH.
T38 chain: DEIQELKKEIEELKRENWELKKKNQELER

A further assay addresses T39, 4H687-bH.
T39 chain: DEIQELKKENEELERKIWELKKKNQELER

In a further assay the target is T40, 4H72-bH.
T40 chain: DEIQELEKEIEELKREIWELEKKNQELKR

The target of the next assay is T41, 4H797-bH.
T41 chain: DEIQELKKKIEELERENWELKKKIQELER

The next assay concerns the target T42, 4H883-bH.
T42 chain: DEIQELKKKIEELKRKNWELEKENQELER

Another assay concerns the target T43, 4H918-bH.
T43 chain: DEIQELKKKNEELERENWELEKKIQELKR

For the next assay, the target named is T44, 4H953-bH.
T44 chain: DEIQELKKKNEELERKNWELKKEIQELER

For the next assay, the target named is T45, 4H967-bH.
T45 chain: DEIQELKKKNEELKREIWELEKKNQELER

A further assay concerns the target T46, O9-bN.
T46 chain: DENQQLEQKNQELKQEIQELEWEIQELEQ

The target of another assay is T47, 4H908-bA.
T47 chain: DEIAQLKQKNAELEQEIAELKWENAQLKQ

The target of another assay is T48, 4H918-bA.
T48 chain: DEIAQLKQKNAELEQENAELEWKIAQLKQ

The target of the next assay is T49, 4H953-bA.
T49 chain: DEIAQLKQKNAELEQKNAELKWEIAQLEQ

The target of the next assay is T50, 4H967-bA.
T50 chain: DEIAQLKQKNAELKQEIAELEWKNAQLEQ

For DENQQLEQEIQELEQEIQELEWKNQELKQ [P11A-bN], the interaction score with P11A-bN was 0.856; in the assay with P12A-bN, 0.458; with P1A-bN it was -0.501; with P2A-bN, 0.436; in the assay with P3A-bN, 0.143; in the assay with P4A-bN, 1.12. In addition, the interaction score is -1.3 in the assay with P5A-bN; -0.465 with P6A-bN; -0.868 with P7A-bN; 0.54 with P8A-bN; 0.422 with P9A-bN.
As for DKNQQLKQENQELEQKIQELKWKIQELKQ [P10A-bN], the interaction score in the assay with P11A-bN was 0.197; with P12A-bN, -0.334; in the assay with P1A-bN, -0.0109; in the assay with P2A-bN it was -1.29; with P3A-bN it was -2.58; with P4A-bN, 0. Further, the interaction score with P5A-bN was -0.55; in the assay with P6A-bN, -0.522; in the assay with P7A-bN, 0.528; in the assay with P8A-bN, -1.93.
As to DKNQELKKKIEELKRKIWELKKENQELER [P12A-bH], the interaction score is -0.588 with P12A-bH; 0.256 in the assay with P1A-bH; -1.23 in the assay with P2A-bH; 1.64 with P3A-bH; -0.357 with P4A-bH; -2.21 in the assay with P5A-bH. The interaction score is 0.389 in the assay with P6A-bH, -0.514 with P7A-bH, 0.274 with P8A-bH and 0.667 in the assay with P9A-bH.
Take DENQELEKKIEELERKIWELKKKNQELKR [4H1328-bH]: the interaction score in the assay with 4H1369-bH is -1.31; with 4H1446-bH, 0.331; with 4H1845-bH, -0.384; in the assay with 4H2576-bH, 1.67; with 4H2610-bH, 0.958; with 4H2667-bH, -0.993. Also, the interaction score with 4H2697-bH is 0.213; with 4H3189-bH it was -0.241; with 4H331-bH, 1.28; with 4H3606-bH it was 0.235; in the assay with 4H370-bH, -0.934; in the assay with 4H3782-bH, 0.448. Further, the interaction score is 1.38 with 4H3843-bH; 1.01 with 4H4001-bH; 0 with 4H462-bH; 0.634 in the assay with 4H568-bH; -1.86 with 4H607-bH; -1.73 in the assay with 4H687-bH. The interaction score in the assay with 4H72-bH is 0.492; in the assay with 4H797-bH, 0.552; in the assay with 4H883-bH, 0.137; in the assay with 4H918-bH, -0.116; with 4H953-bH, -0.534; with 4H967-bH it was -1.62.
Consider DENQELEKKIEELKRENWELKKEIQELER [4H1369-bH], for which the interaction score is -0.455 in the assay with 4H1369-bH; -1.19 with 4H1446-bH; -0.792 with 4H1845-bH; -0.848 with 4H2576-bH; 0.178 with 4H2610-bH; -0.433 with 4H2667-bH. Further, the interaction score is -0.653 in the assay with 4H2697-bH; -0.572 with 4H3189-bH; -0.491 with 4H331-bH; 1.14 in the assay with 4H3606-bH; -1.73 in the assay with 4H370-bH; -0.489 with 4H3782-bH. Also, the interaction score in the assay with 4H3843-bH is -0.198; with 4H4001-bH, -0.331; with 4H462-bH, -1.88; with 4H568-bH, -1.94; with 4H607-bH it was -0.13; in the assay with 4H687-bH, 0.994. The interaction score with 4H72-bH was -1.58; in the assay with 4H797-bH, -0.464; in the assay with 4H883-bH, -0.565; with 4H918-bH, -1.26; with 4H953-bH, -0.636; with 4H967-bH, -0.723. For the same molecule, in the assay with O9-bN, the interaction score was -3.43.
Regarding DEIAQLKQKNAELEQEIAELKWENAQLKQ [4H908-bA], the interaction score is 0.539 in the assay with 4H908-bA; 0.429 with 4H918-bA; -0.801 with 4H953-bA; -0.532 with 4H967-bA; 1.22 with P11A-bN.
